Positions count from the first letter of the chain named.
T1: h 5HT1A (Homo sapiens, UniProt P08908)
T1 sequence (P08908 1-422): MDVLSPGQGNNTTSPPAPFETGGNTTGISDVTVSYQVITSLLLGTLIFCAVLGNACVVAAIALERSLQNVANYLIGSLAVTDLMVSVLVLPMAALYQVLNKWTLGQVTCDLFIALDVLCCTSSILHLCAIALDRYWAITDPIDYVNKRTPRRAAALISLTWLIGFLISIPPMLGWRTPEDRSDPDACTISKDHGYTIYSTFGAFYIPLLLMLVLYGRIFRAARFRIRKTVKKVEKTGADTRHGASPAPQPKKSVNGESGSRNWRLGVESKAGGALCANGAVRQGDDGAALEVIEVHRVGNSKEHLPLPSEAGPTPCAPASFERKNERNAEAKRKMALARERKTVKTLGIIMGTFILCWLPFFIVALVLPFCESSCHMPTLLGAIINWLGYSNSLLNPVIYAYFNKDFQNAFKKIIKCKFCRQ

T2: h GALR1 (Homo sapiens, UniProt P47211)
T2 construct: expressed in transfected cells; host or cells: COS-7
T2 sequence (P47211 1-349): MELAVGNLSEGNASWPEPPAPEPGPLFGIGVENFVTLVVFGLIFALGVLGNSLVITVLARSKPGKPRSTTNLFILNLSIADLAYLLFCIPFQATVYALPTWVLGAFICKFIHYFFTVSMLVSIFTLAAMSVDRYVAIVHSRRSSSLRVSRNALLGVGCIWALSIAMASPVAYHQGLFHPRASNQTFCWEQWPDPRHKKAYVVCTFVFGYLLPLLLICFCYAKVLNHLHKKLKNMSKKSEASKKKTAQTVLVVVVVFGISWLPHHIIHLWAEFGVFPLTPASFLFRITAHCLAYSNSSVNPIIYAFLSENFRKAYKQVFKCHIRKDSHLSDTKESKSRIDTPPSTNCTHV

T3: h 5HT1F (Homo sapiens, UniProt P30939)
T3 sequence (P30939 1-366): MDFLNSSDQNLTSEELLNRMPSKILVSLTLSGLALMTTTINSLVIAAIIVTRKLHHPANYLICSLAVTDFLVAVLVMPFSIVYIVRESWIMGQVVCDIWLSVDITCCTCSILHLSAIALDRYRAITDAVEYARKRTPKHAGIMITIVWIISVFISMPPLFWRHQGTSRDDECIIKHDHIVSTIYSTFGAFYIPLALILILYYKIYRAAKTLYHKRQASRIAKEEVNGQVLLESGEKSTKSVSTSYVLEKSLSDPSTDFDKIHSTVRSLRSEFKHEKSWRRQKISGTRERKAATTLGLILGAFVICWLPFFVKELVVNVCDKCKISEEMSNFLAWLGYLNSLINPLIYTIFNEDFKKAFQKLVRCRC

B1: cGαq/z5: chimeric Gα subunit: C-terminal final 5 amino acids of C. elegans Gαq replaced with those of hGαz (SEQ ID NO: 1) (protein)
chain: MACCLSEEAREQKRINQEIEKQLQRDKRNARRELKLLLLGTGESGKSTFIKQMRIIHGQGYSEEDKRAHIRLVYQNVFMAIQSMIRAMDTLDIKFGNESEELQEKAAVVREVDFESVTSFEEPYVSYIKELWEDSGIQECYDRRREYQLTDSAKYYLSDLRRLAVPDYLPTEQDILRVRVPTTGIIEYPFDLEQIIFRMVDVGGQRSERRKWIHCFENVTSIMFLVALSEYDQVLVECDNENRMEESKALFRTIITYPWFTNSSVILFLNKKDLLEEKILYSHLADYFPEYDGPPRDPIAAREFILKMFVDLNPDADKIIYSHFTCATDTENIRFVFAAVKDTILQHNLKYIGLC
modifications: C. elegans
B2: cGαq/z9: C. elegans Gαq with Gαz portion of the C-terminal tail extended to 9 amino acids (SEQ ID NO: 2) (protein)
chain: B1 chain with H347N
modifications: C. elegans

What was measured:
Experiment in all cases: Calcium mobilization (FLIPR, Fluo-3) in transfected COS-7 cells
Type in all cases: cell-based
h 5HT4 = h 5HT4 (Homo sapiens, UniProt Q13639); settings: h 5HT4 + chimera in COS-7; agonist 5HT, max 100 μM
In short: (§1)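 First, COS-7 cells receive GPCR and chimeric G protein cDNA by DEAE-dextran transfection. Agonist responses are finally recorded by FLIPR for 3 min at room temperature.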

h 5HT1A = molecular target: T1, h 5HT1A; settings: h 5HT1A + chimera in COS-7; agonist 5HT, max 100 μM
In short: as §1

h 5HT1D = h 5HT1D (Homo sapiens, UniProt P28221); settings: h 5HT1D + chimera in COS-7; agonist 5HT, max 100 μM
In short: as §1

h GALR1 = molecular target: T2, h GALR1; settings: h GALR1 + chimera in COS-7; agonist GAL, max 10 μM
In short: as §1

h 5HT1F = molecular target: T3, h 5HT1F; settings: h 5HT1F + chimera in COS-7; agonist 5HT, max 100 μM
In short: as §1

m 5HT5B = m 5HT5B (Mus musculus, UniProt P31387); settings: m 5HT5B + chimera in COS-7; agonist 5HT, max 100 μM
In short: as §1

h MCH = h MCH (Homo sapiens, UniProt Q99705); settings: h MCH + chimera in COS-7; agonist MCH, max 10 μM
In short: as §1

h 5HT1D, sequence (P28221 whole entry): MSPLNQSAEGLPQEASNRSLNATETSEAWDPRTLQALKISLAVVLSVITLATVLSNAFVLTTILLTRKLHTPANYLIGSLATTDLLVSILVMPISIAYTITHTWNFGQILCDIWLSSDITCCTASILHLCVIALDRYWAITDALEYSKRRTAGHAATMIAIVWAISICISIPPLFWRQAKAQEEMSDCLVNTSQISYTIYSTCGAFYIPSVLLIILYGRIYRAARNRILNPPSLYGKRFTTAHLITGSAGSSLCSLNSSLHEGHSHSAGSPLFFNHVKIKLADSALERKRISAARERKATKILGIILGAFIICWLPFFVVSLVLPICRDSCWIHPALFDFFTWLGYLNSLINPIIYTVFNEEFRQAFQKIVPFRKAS
h 5HT4, sequence (Q13639 whole entry): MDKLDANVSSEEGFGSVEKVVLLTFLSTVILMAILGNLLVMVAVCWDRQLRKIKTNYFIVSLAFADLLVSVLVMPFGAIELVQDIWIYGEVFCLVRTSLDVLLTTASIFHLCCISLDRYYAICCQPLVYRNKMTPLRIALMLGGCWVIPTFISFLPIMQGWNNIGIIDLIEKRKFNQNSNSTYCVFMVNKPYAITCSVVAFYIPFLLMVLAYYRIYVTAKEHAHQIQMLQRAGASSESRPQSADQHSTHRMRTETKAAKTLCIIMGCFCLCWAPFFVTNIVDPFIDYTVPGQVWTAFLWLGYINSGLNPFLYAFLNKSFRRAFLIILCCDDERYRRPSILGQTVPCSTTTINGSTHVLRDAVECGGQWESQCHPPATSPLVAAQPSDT
m 5HT5B, sequence (P31387 whole entry): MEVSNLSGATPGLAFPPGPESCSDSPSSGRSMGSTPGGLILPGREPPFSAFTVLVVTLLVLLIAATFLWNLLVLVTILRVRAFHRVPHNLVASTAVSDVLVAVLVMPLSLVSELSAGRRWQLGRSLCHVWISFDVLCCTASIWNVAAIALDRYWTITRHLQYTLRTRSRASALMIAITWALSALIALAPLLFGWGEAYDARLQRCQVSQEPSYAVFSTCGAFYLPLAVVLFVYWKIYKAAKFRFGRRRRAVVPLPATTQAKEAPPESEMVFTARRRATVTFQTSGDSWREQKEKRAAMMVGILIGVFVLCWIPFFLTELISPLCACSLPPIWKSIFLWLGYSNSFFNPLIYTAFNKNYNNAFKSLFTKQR
h MCH, sequence (Q99705 whole entry): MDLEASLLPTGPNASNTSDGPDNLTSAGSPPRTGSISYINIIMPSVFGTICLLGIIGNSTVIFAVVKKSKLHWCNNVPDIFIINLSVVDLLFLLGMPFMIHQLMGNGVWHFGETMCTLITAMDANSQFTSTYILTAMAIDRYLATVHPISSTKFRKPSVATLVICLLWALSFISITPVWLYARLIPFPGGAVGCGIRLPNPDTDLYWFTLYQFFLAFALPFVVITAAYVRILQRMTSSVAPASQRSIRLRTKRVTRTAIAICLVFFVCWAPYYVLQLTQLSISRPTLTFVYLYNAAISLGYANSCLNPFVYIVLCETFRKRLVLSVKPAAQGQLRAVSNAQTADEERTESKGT

Row | Molecule | MAXIMAL SIGNAL (FLUORESCENCE UNITS) (h 5HT4) [fluorescence units] | MAXIMAL SIGNAL (FLUORESCENCE UNITS) (h 5HT1A) [fluorescence units] | MAXIMAL SIGNAL (FLUORESCENCE UNITS) (h 5HT1D) [fluorescence units] | MAXIMAL SIGNAL (FLUORESCENCE UNITS) (h GALR1) [fluorescence units] | MAXIMAL SIGNAL (FLUORESCENCE UNITS) (h 5HT1F) [fluorescence units] | MAXIMAL SIGNAL (FLUORESCENCE UNITS) (m 5HT5B) [fluorescence units] | MAXIMAL SIGNAL (FLUORESCENCE UNITS) (h MCH) [fluorescence units]
1 | B1 | 1011 | 1997 | 414 | 7648 | 243 | 265 | 2699
2 | B2 | 1696 | 3139 | 504 | 8489 | 384 | 443 | 3332

From US7067277B1, “Chimeric G proteins and uses thereof” (H. Lundbeck A/S, priority 1999, dated 2006)
